This is an account of results in patent publication US20230168249A1 (ACADEMIA SINICA, published 2023).

Like-named read-outs stand apart in the source and are kept apart here.

The target of one test is T1, MERS-CoV-N protein (MERS-CoV, UniProt K9N4V7 1-411).
T1 construct: also called MERS-CoV nucleocapsid protein
The test is described as follows: ELISA, IgG1 on recombinant N protein. Background: ELISA stands for enzyme-linked immunosorbent assay.

The next test concerns the target T2, HCoV-HKU1-N protein (HCoV-HKU1, UniProt Q5MQC6 1-441).
T2 construct: also called HKU1-CoV N
T2 chain: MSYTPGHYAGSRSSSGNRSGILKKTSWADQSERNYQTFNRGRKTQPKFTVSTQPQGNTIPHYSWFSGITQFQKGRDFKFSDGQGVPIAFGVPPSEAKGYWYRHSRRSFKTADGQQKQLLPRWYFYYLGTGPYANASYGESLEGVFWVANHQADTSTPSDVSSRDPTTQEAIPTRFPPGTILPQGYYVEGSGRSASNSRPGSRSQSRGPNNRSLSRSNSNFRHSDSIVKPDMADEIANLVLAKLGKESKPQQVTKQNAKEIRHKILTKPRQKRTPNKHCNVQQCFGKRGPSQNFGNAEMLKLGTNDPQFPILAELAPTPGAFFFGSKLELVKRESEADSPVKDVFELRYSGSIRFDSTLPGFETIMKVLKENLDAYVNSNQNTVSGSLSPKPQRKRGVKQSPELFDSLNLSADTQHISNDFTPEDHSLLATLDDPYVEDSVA
The test is described as follows: ELISA, IgG1 on recombinant N protein.

Another test deals with T3, HCoV-OC43-N protein (HCoV-OC43, UniProt P33469 1-448).
T3 construct: also called OC43-CoV N
T3 chain: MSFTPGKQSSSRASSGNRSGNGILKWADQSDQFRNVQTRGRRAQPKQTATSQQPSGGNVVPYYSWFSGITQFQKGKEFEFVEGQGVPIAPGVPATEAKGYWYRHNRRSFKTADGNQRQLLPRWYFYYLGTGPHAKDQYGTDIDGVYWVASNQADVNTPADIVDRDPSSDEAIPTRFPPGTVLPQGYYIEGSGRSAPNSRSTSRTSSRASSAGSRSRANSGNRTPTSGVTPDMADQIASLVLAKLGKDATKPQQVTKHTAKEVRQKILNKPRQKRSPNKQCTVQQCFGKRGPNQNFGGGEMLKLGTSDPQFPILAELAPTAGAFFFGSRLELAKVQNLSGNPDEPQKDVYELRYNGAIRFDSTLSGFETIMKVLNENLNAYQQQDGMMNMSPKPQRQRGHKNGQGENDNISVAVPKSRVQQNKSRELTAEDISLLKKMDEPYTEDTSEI
Kind of test: ELISA, IgG1 on recombinant N protein.

Test [1] has as its target T4, SARS-CoV-2-N protein (SARS-CoV-2, UniProt P0DTC9 1-419).
T4 construct: also called nucleocapsid protein of SARS-CoV-2
The test is described as follows: ELISA, IgG1 on recombinant N protein.

A further test deals with T5, HCoV-NL63-N protein (HCoV-NL63, UniProt Q6Q1R8 1-377).
T5 construct: also called NL63-CoV N
T5 sequence: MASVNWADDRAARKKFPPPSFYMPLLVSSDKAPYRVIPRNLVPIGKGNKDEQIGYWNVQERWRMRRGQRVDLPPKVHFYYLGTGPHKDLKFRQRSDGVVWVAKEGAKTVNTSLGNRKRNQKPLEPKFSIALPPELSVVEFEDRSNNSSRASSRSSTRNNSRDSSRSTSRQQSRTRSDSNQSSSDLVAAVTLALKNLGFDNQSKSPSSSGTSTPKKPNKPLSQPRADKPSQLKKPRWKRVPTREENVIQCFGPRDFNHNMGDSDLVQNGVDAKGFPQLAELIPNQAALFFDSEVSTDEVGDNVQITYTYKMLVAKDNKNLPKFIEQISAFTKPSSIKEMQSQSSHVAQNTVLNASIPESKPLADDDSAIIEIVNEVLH
The test is described as follows: ELISA, IgG1 on recombinant N protein.

Another test concerns the target T6, SARS-CoV-1-N protein (SARS-CoV-1, UniProt P59595 1-422).
T6 construct: also called SARS-CoV N; SARS-CoV-N
The test is described as follows: ELISA, IgG1 on recombinant N protein.

Test [2] concerns the target T4, SARS-CoV-2-N protein.

B1: antibody #21 (antibody, V domains shown)
VH: EVQLVESGGGLVQPGGSLRLSCAASGFTINNGSIHWVRQAPGKGLEWVAWIWPFGGYTYYADSVKGRFTISADTSKNTAYLQMNSLRAEDTAVYYCARGSYGYDYWGQGTLVTVSS
VL: DIQMTQSPSSLSASVGDRVTITCRASQDVGSNVAWYQQKPGKAPKLLIFSAPFLYSGVPSRFSGSGSGTDFTLTISSLQPEDFATYYCQQFYDWPLTFGQGTKVEIKR
notes: also called D21
By EC50 is commonly meant the concentration needed to bring the measured effect to its halfway point. Take B1: the EC50 is over 2 µg/mL with MERS-CoV-N protein; over 2 µg/mL in the test with HCoV-HKU1-N protein; over 2 µg/mL in the test with HCoV-OC43-N protein; 0.018 µg/mL with SARS-CoV-2-N protein [1]; over 2 µg/mL with HCoV-NL63-N protein; 0.0214 µg/mL with SARS-CoV-1-N protein.

B2: antibody #22 (antibody, V domains shown)
VH: EVQLVESGGGLVQPGGSLRLSCAASGFTISSGSIHWVRQAPGKGLEWVASIWPFGGYTSYADSVKGRFTISADTSKNTAYLQMNSLRAEDTAVYYCARGSFGSDYWGQGTLVTVSS
VL: DIQMTQSPSSLSASVGDRVTITCRASQDVDDNVAWYQQKPGKAPKLLISSSSGLYSGVPSRFSGSGSGTDFTLTISSLQPEDFATYYCQQSYNGPITFGQGTKVEIKR
notes: also called D22
Regarding B2, the EC50 was over 2 µg/mL with MERS-CoV-N protein; over 2 µg/mL with HCoV-HKU1-N protein; over 2 µg/mL with HCoV-OC43-N protein; 0.0044 µg/mL in the test with SARS-CoV-2-N protein [1]; over 2 µg/mL with HCoV-NL63-N protein; 0.0039 µg/mL in the test with SARS-CoV-1-N protein.

B3: antibody #36 (antibody, V domains shown)
VH: EVQLVESGGGLVQPGGSLRLSCAASGFTINRYSIHWVRQAPGKGLEWVAGIWPFGGDTTYADSVKGRFTISADTSKNTAYLQMNSLRAEDTAVYYCARGATSHDYWGQGTLVTVSS
VL: DIQMTQSPSSLSASVGDRVTITCRASQDVTTTVAWYQQKPGKAPKLLINKGSWLYSGVPSRFSGSGSGTDFTLTISSLQPEDFATYYCQQYNKWPLTFGQGTKVEIKR
notes: also called IgG1#36; D36
For the molecule B3, the EC50 in the test with MERS-CoV-N protein was over 2 µg/mL; in the test with HCoV-HKU1-N protein, over 2 µg/mL; with HCoV-OC43-N protein it was over 2 µg/mL; with SARS-CoV-2-N protein [1], 0.0008 µg/mL; with HCoV-NL63-N protein it was over 2 µg/mL; with SARS-CoV-1-N protein it was 0.002 µg/mL. In the test with SARS-CoV-2-N protein [2], this molecule displayed an EC50 of 0.0288 µg/mL.

B4: antibody #7 (antibody, V domains shown)
VH: EVQLVESGGGLVQPGGSLRLSCAASGFTIEDRWIHWVRQAPGKGLEWVASIWPMEGLTRYADSVKGRFTISADTSKNTAYLQMNSLRAEDTAVYYCARGYYGFDYWGQGTLVTVSS
VL: DIQMTQSPSSLSASVGDRVTITCRASQDVEARVAWYQQKPGKAPKLLIFTSTRLYSGVPSRFSGSGSGTDFTLTISSLQPEDFATYYCQQIMPLPTTFGQGTKVEIKR
notes: also called C07
As to B4, the 50% effective concentration (EC50) was over 2 µg/mL in the test with MERS-CoV-N protein; over 2 µg/mL with HCoV-HKU1-N protein; over 2 µg/mL with HCoV-OC43-N protein; 0.0037 µg/mL with SARS-CoV-2-N protein [1]; over 2 µg/mL with HCoV-NL63-N protein; 0.0037 µg/mL in the test with SARS-CoV-1-N protein. For the same molecule, in the test with SARS-CoV-2-N protein [2], the midpoint of the response, the EC50, lay at 0.018 µg/mL.

B5: antibody #33 (antibody, V domains shown)
VH: EVQLVESGGGLVQPGGSLRLSCAASGFTINNGGIHWVRQAPGKGLEWVAGIWPFWGSTSYADSVKGRFTISADTSKNTAYLQMNSLRAEDTAVYYCARGSYGFDYWGQGTLVTVSS
VL: DIQMTQSPSSLSASVGDRVTITCRASQDVYSSVAWYQQKPGKAPKLLIFGSSFLYSGVPSRFSGSGSGTDFTLTISSLQPEDFATYYCQQYYDWPITFGQGTKVEIKR
notes: also called D33; C33
In the case of B5, the concentration for a half-maximal effect (EC50) in the test with MERS-CoV-N protein was over 2 µg/mL; with HCoV-HKU1-N protein it was over 2 µg/mL; in the test with HCoV-OC43-N protein, over 2 µg/mL; in the test with SARS-CoV-2-N protein [1], 0.0014 µg/mL; with HCoV-NL63-N protein, over 2 µg/mL; with SARS-CoV-1-N protein, 0.0016 µg/mL. This molecule yielded a half-maximal effective concentration (EC50) in the test with SARS-CoV-2-N protein [2] of 0.0255 µg/mL.

B6: antibody #48 (antibody, V domains shown)
VH: EVQLVESGGGLVQPGGSLRLSCAASGFTISNFGIHWVRQAPGKGLEWVAGIWPYGGYTFYADSVKGRFTISADTSKNTAYLQMNSLRAEDTAVYYCARFDSYSYSGYMDYWGQGTLVTVSS
VL: DIQMTQSPSSLSASVGDRVTITCSGSSSNIGDNNVYWYQQKPGKAPKLLIFGPAYLYSGVPSRFSGSGSGTDFTLTISSLQPEDFATYYCAAGYSDNNGITFGQGTKVEIKR
notes: also called C48
Turning to B6, the EC50 with MERS-CoV-N protein is over 2 µg/mL; with HCoV-HKU1-N protein, over 2 µg/mL; in the test with HCoV-OC43-N protein, over 2 µg/mL; in the test with SARS-CoV-2-N protein [1], 0.0467 µg/mL; with HCoV-NL63-N protein, over 2 µg/mL; with SARS-CoV-1-N protein it was 0.0186 µg/mL. This molecule had an EC50 with SARS-CoV-2-N protein [2] of 0.0207 µg/mL.

B7: antibody #11 (antibody, V domains shown)
VH: EVQLVESGGGLVQPGGSLRLSCAASGFTIQDRMIHWVRQAPGKGLEWVASILPFLGATWYADSVKGRFTISADTSKNTAYLQMNSLRAEDTAVYYCARSWFSPFDYWGQGTLVTVSS
VL: DIQMTQSPSSLSASVGDRVTITCRASQDVGGSVAWYQQKPGKAPKLLISFPGGLYSGVPSRFSGSGSGTDFTLTISSLQPEDFATYYCQQYFSWPITFGQGTKVEIKR
notes: also called D11; C11
On to B7, for which the EC50 with MERS-CoV-N protein is over 2 µg/mL; in the test with HCoV-HKU1-N protein, over 2 µg/mL; with HCoV-OC43-N protein it was over 2 µg/mL; with HCoV-NL63-N protein, over 2 µg/mL; with SARS-CoV-1-N protein, 0.0069 µg/mL.
